In general, EC50 refers to the concentration giving half of the maximal effect. Low readings indicate greater potency, high ones weaker potency. The term Kd denotes the equilibrium constant for the complex coming apart. A lower Kd goes with tighter binding.

One assay concerns the target T1, 重组人PD-L2蛋白 (human, UniProt Q9BQ51 20-219).
T1 construct: The words 携带hFc标签的 stand before the first protein of the list; also called Acrobiosystem Cat.PD2-H5251
T1 sequence (looked up): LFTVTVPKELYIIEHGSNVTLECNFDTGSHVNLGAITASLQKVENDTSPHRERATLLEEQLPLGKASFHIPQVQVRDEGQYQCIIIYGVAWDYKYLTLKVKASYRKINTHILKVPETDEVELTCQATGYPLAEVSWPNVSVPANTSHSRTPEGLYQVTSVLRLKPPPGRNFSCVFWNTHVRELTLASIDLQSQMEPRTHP
As to the kind of experiment: ELISA, protein coated at 1μg/ml.

For a further assay, the target named is T2, 重组人PD-1蛋白(自产) (human, UniProt Q15116 25-167).
T2 construct: The words 携带hFc标签的 stand before the first protein of the list
T2 sequence (Q15116 25-167): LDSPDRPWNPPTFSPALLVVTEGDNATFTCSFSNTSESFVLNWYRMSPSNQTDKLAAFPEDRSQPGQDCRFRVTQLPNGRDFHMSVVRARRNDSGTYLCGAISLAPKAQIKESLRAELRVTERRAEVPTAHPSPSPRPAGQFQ
As to the kind of experiment: ELISA, protein coated at 1μg/ml. On the technique in general: An ELISA detects its analyte on a solid surface through an enzyme-linked reagent.

The next assay deals with T3, 重组人ICOS蛋白 (human, UniProt Q9Y6W8 21-140).
T3 construct: The words 携带hFc标签的 stand before the first protein of the list; also called Acrobiosystem Cat.ICS-H5250
T3 sequence (looked up): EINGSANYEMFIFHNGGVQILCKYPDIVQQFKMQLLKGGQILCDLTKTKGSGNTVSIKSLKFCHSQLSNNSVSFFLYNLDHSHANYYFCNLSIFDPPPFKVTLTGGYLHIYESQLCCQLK
Briefly: ELISA, protein coated at 1μg/ml.

A further assay addresses T4, 重组人ICOSLG蛋白 (human, UniProt O75144 19-258).
T4 construct: The words 携带hFc标签的 stand before the first protein of the list; also called Acrobiosystem Cat.B72-H5254
T4 sequence (looked up): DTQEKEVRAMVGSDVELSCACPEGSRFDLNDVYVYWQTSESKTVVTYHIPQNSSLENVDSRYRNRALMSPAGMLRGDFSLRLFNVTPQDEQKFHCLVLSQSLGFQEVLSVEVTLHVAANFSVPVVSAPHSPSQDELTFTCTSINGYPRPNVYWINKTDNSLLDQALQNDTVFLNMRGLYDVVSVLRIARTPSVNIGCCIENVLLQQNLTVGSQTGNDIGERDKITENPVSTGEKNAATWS
Briefly: ELISA, protein coated at 1μg/ml.

In the next assay the target is T5, 重组人CD276蛋白 (human, UniProt Q5ZPR3-2 29-245).
T5 construct: The words 携带hFc标签的 stand before the first protein of the list; also called B7-H3; Acrobiosystem Cat.B73-H5253
T5 sequence (looked up): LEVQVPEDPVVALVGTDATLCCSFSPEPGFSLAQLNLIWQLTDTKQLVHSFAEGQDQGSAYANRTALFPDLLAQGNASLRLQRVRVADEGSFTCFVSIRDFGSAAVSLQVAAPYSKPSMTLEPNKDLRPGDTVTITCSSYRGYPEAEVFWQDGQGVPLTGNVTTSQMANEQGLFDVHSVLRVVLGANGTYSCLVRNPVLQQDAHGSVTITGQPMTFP
Briefly: ELISA, protein coated at 1μg/ml.

In the next assay the target is T6, 重组人CD86蛋白 (human, UniProt P42081 26-247).
T6 construct: The words 携带hFc标签的 stand before the first protein of the list; also called Acrobiosystem Cat.CD6-H5257
T6 sequence (looked up): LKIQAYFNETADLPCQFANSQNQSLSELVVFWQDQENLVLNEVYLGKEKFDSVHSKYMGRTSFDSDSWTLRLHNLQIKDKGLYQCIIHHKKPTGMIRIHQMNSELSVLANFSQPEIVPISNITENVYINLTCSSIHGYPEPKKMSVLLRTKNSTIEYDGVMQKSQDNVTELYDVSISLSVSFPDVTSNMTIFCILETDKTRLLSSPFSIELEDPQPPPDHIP
As to the kind of experiment: ELISA, protein coated at 1μg/ml.

The target in another assay is T7, 重组人CD28蛋白 (human, UniProt P10747 19-152).
T7 construct: The words 携带hFc标签的 stand before the first protein of the list; also called Acrobiosystem Cat.CD8-H525a
As to the kind of experiment: ELISA, protein coated at 1μg/ml.

The target of the next assay is T8, 重组人CTLA-4蛋白 (human, UniProt P16410 37-162).
T8 construct: The words 携带hFc标签的 stand before the first protein of the list; also called Acrobiosystem Cat.CT4-H5255
T8 sequence (P16410 37-162): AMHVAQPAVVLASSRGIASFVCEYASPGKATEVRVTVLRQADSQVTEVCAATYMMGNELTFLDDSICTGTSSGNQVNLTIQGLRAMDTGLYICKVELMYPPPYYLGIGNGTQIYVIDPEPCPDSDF
As to the kind of experiment: ELISA, protein coated at 1μg/ml.

In another assay the target is T9, 小鼠PD-L1 (on CHO cells) (mouse, UniProt Q9EP73 19-290).
T9 construct: whole, on cells; also called CHO-mPD-L1稳定细胞株; 稳定表达全长小鼠PD-L1的CHO
T9 sequence (Q9EP73 19-290): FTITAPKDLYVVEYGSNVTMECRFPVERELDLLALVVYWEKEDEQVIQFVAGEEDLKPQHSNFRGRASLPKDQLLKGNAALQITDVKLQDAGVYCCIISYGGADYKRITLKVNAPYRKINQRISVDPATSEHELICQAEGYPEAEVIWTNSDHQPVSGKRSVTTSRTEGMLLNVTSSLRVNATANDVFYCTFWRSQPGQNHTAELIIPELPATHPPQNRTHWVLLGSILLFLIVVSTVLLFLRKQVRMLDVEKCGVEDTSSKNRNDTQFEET
Briefly: flow cytometry on CHO-mPD-L1 cells.

For the next assay, the target named is T10, 人PD-L1 (on cells) (human, UniProt Q9NZQ7 19-290).
T10 construct: whole, on cells; One molecule for human PD-L1 on CHO-hPD-L1, on IFNγ-stimulated A375 and on CHO-hPD-L1-OKT3 cells; the cell is named under assay; also called CHO-hPD-L1稳定细胞株; 稳定表达人PD-L1的CHO
T10 sequence (Q9NZQ7 19-290): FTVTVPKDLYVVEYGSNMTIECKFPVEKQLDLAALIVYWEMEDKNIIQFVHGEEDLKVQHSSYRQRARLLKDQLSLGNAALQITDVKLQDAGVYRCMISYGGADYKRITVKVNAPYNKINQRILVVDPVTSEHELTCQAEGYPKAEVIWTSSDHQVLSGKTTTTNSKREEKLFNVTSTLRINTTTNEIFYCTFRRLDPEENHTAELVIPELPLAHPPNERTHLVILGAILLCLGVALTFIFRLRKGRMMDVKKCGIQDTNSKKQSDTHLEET
As to the kind of experiment: flow cytometry on IFNγ-stimulated A375 cells. (In general: Flow cytometry measures light scatter and fluorescence of single cells or particles in a stream.)

The target in the next assay is T11, hPD-L1-his (human, UniProt Q9NZQ7 19-238).
T11 construct: extracellular domain; also called 携带his标签的人PD-L1胞外区重组蛋白; not shown: his tag
T11 sequence (Q9NZQ7 19-238): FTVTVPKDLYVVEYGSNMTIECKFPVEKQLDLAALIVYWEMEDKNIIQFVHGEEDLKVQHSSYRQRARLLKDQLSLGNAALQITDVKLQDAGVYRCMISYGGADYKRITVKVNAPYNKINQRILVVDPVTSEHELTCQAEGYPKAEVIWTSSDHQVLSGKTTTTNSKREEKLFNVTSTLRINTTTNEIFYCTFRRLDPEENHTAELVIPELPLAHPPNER
As to the kind of experiment: BLI (ForteBIO), hPD-L1-his on anti-Penta-HIS sensor.

Substitutions are numbered along the chain they refer to.

B1: 176L6H5 (antibody, V domains shown)
VH: EVQLQESGPGLVKPSETLSLTCAVYGDSITSGYWNWIRKPPGKGLEYMGYISYTGSTYQNPSLKSRITFSRDTSKNQYYLKLSSVTAADTATYYCARSRAWIRTYFDYWGQGTLVTVSS
VL: EIVLTQSPDFQSVTPKEKVTITCSVSSSISSSNLHWYQQKPDQSPKLLIYGTSNLASGVPSRFSGSGSGTDFTLTINSLEAEDAATYYCQQWSSYPLTFGQGTKLEIKR
notes: Whole humanized mAb expressed in 293 cells; detected with anti-human IgG; also called 抗人PD-L1人源化抗体176L6H5
Regarding B1, the binding result in the assay with 重组人PD-L2蛋白, with 重组人PD-1蛋白(自产), with 重组人ICOS蛋白, with 重组人ICOSLG蛋白, with 重组人CD276蛋白 and in the assay with 重组人CD86蛋白 was “no binding (tested: 10μg/ml)” each time. The binding result in the assay with 重组人CD28蛋白 is “no binding (tested: 10μg/ml)”; in the assay with 重组人CTLA-4蛋白, “no binding (tested: 10μg/ml)”; with 小鼠PD-L1 (on CHO cells), “no binding (tested: 20μg/ml)”. Also, in the assay with 人PD-L1 (on cells), the EC50 was around 200 pM. This molecule showed a dissociation constant (Kd) with hPD-L1-his of 30.2 pM.

B2: 176L4H2 (antibody, V domains shown)
VH: B1 VH with E1Q, G44K, M48I, F69M, T92V
VL: DIQMTQSPSSLSASVGDRVTITCSVSSSISSSNLHWYQQKPGKAPKPWIYGTSNLASGVPSRFSGSGSGTDYTLTISSLQPEDFATYYCQQWSSYPLTFGQGTKLEIKR
notes: Whole humanized mAb expressed in 293 cells; detected with anti-human IgG; also called 抗人PD-L1人源化抗体176L4H2
For the molecule B2, the binding result in the assay with 重组人PD-L2蛋白, with 重组人PD-1蛋白(自产), in the assay with 重组人ICOS蛋白, with 重组人ICOSLG蛋白, with 重组人CD276蛋白 and in the assay with 重组人CD86蛋白 was “no binding (tested: 10μg/ml)” in each case. The binding result in the assay with 重组人CD28蛋白 is recorded as “no binding (tested: 10μg/ml)”; with 重组人CTLA-4蛋白 it was “no binding (tested: 10μg/ml)”; with 小鼠PD-L1 (on CHO cells) it was “no binding (tested: 20μg/ml)”. Besides, the concentration giving a half-maximal response (EC50) with 人PD-L1 (on cells) was around 200 pM. Further, the affinity with hPD-L1-his, expressed as Kd, was 84.8 pM.

B3: 176L4H3 (antibody, V domains shown)
VH: B1 VH with E1Q, G44K, M48I, T92V
VL: B2 VL
notes: Whole humanized mAb expressed in 293 cells; detected with anti-human IgG; also called 抗人PD-L1人源化抗体176L4H3
Consider B3, for which the binding result with 重组人PD-L2蛋白, with 重组人PD-1蛋白(自产), with 重组人ICOS蛋白, with 重组人ICOSLG蛋白, in the assay with 重组人CD276蛋白 and with 重组人CD86蛋白 was “no binding (tested: 10μg/ml)” each time. The figures for the binding result in the assay with 重组人CD28蛋白, with 重组人CTLA-4蛋白 and with 小鼠PD-L1 (on CHO cells) were “no binding (tested: 10μg/ml)”, “no binding (tested: 10μg/ml)” and “no binding (tested: 20μg/ml)”, respectively. In the assay with 人PD-L1 (on cells), this molecule gave a 50% effective concentration (EC50) of around 200 pM. For the same molecule, the Kd in the assay with hPD-L1-his worked out at 80 pM.

B4: 176L4H4 (antibody, V domains shown)
VH: B1 VH with E1Q, A23S, G44K, T92V
VL: B2 VL
notes: Whole humanized mAb expressed in 293 cells; detected with anti-human IgG; also called 抗人PD-L1人源化抗体176L4H4
On to B4, for which the binding result in the assay with 重组人PD-L2蛋白, with 重组人PD-1蛋白(自产), with 重组人ICOS蛋白, with 重组人ICOSLG蛋白, with 重组人CD276蛋白 and in the assay with 重组人CD86蛋白 was “no binding (tested: 10μg/ml)” each time. The binding result with 重组人CD28蛋白 is listed as “no binding (tested: 10μg/ml)”; in the assay with 重组人CTLA-4蛋白, “no binding (tested: 10μg/ml)”; with 小鼠PD-L1 (on CHO cells) it was “no binding (tested: 20μg/ml)”. Further, the 50% effective concentration (EC50) with 人PD-L1 (on cells) is around 200 pM. The same molecule registered a Kd with hPD-L1-his of 88.1 pM.

B5: 176L4H1 (antibody, V domains shown)
VH: B1 VH with E1Q, M48I, F69M, T92V
VL: B2 VL
notes: Whole humanized mAb expressed in 293 cells; detected with anti-human IgG; also called 抗人PD-L1人源化抗体176L4H1
Turning to B5, the binding result with 重组人PD-L2蛋白, in the assay with 重组人PD-1蛋白(自产), with 重组人ICOS蛋白, with 重组人ICOSLG蛋白, with 重组人CD276蛋白 and with 重组人CD86蛋白 was “no binding (tested: 10μg/ml)” in each case. For the same molecule, the binding result with 重组人CD28蛋白 was “no binding (tested: 10μg/ml)”; with 重组人CTLA-4蛋白, “no binding (tested: 10μg/ml)”; with 小鼠PD-L1 (on CHO cells), “no binding (tested: 20μg/ml)”. This molecule also displayed a concentration giving a half-maximal response (EC50) with 人PD-L1 (on cells) of around 200 pM. In the assay with hPD-L1-his, this molecule had a Kd of 8.4 pM.

B6: 176L5H2 (antibody, V domains shown)
VH: B1 VH with E1Q, G44K, M48I, F69M, T92V
VL: B2 VL with D1E, Q3V, M4L
notes: Whole humanized mAb expressed in 293 cells; detected with anti-human IgG; also called 抗人PD-L1人源化抗体176L5H2
On to B6, for which the binding result with 重组人PD-L2蛋白, with 重组人PD-1蛋白(自产), in the assay with 重组人ICOS蛋白, in the assay with 重组人ICOSLG蛋白, with 重组人CD276蛋白 and with 重组人CD86蛋白 was “no binding (tested: 10μg/ml)” each time. The binding result with 重组人CD28蛋白 is “no binding (tested: 10μg/ml)”; with 重组人CTLA-4蛋白 it was “no binding (tested: 10μg/ml)”; with 小鼠PD-L1 (on CHO cells) it was “no binding (tested: 20μg/ml)”. Further, in the assay with 人PD-L1 (on cells), the EC50 is around 200 pM. The molecule further registered a Kd with hPD-L1-his of 109 pM.
